*1 amine or outer side, *2 acyl side, *3 side chain or, on linkers, in order; H or OH if unused. Where no end group is shown, it is not given here. Side-chain parts run from the residue outwards. The star is where a group is joined. C18 diacid = O=C(O)CCCCCCCCCCCCCCCCC(=O)*; C16 diacid = O=C(O)CCCCCCCCCCCCCCC(=O)*; γGlu = O=C(O)[C@H](CCC(=O)[*:2])N[*:1]; AEEA = NCCOCCOCC(=O)O
T1: human GIP receptor (human, UniProt P48546 22-466)
T1 sequence (looked up): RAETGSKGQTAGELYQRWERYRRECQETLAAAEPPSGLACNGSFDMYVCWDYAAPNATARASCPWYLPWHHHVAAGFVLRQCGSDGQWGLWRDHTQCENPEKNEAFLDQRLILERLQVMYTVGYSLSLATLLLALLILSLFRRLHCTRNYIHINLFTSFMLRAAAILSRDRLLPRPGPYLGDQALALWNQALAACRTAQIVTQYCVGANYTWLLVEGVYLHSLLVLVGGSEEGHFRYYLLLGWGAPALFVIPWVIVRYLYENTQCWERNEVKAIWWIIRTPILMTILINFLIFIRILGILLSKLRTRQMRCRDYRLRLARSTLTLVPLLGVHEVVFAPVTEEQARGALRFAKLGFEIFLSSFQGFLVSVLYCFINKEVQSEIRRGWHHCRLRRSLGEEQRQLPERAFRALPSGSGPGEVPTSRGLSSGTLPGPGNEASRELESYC


What follows are binders tested against T1, human GIP receptor (assay: cell-based or functional assay).

Binder	cAMP antagonism [nM]	cAMP antagonism % inhib [%]	cAMP antagonism log [log M]
FISDYSIAMDKIK(C16 diacid)QQDFVNWLLAQKGKKNDWKHNITQ-OH (N-terminus assumed; SMILES CC[C@H](C)[C@H](NC(=O)[C@H](CO)NC(=O)[C@H](Cc1ccc(O)cc1)NC(=O)[C@H](CC(=O)O)NC(=O)[C@H](CO)NC(=O)[C@@H](NC(=O)[C@@H](N)Cc1ccccc1)[C@@H](C)CC)C(=O)N[C@@H](C)C(=O)N[C@@H](CCSC)C(=O)N[C@@H](CC(=O)O)C(=O)N[C@@H](CCCCN)C(=O)N[C@H](C(=O)N[C@@H](CCCCNC(=O)CCCCCCCCCCCCCCC(=O)O)C(=O)N[C@@H](CCC(N)=O)C(=O)N[C@@H](CCC(N)=O)C(=O)N[C@@H](CC(=O)O)C(=O)N[C@@H](Cc1ccccc1)C(=O)N[C@H](C(=O)N[C@@H](CC(N)=O)C(=O)N[C@@H](Cc1c[nH]c2ccccc12)C(=O)N[C@@H](CC(C)C)C(=O)N[C@@H](CC(C)C)C(=O)N[C@@H](C)C(=O)N[C@@H](CCC(N)=O)C(=O)N[C@@H](CCCCN)C(=O)NCC(=O)N[C@@H](CCCCN)C(=O)N[C@@H](CCCCN)C(=O)N[C@@H](CC(N)=O)C(=O)N[C@@H](CC(=O)O)C(=O)N[C@@H](Cc1c[nH]c2ccccc12)C(=O)N[C@@H](CCCCN)C(=O)N[C@@H](Cc1c[nH]cn1)C(=O)N[C@@H](CC(N)=O)C(=O)N[C@H](C(=O)N[C@H](C(=O)N[C@@H](CCC(N)=O)C(=O)O)[C@@H](C)O)[C@@H](C)CC)C(C)C)[C@@H](C)CC) [AT466]	16	90	-7.8
SGTFISDYSIAMDRIK([AEEA-AEEA-AEEA-γGlu-C16 diacid])QQDFVNWLLAQRGRRNDW-OH (N-terminus assumed; SMILES CC[C@H](C)[C@H](NC(=O)[C@H](CO)NC(=O)[C@H](Cc1ccc(O)cc1)NC(=O)[C@H](CC(=O)O)NC(=O)[C@H](CO)NC(=O)[C@@H](NC(=O)[C@H](Cc1ccccc1)NC(=O)[C@@H](NC(=O)CNC(=O)[C@@H](N)CO)[C@@H](C)O)[C@@H](C)CC)C(=O)N[C@@H](C)C(=O)N[C@@H](CCSC)C(=O)N[C@@H](CC(=O)O)C(=O)N[C@@H](CCCNC(=N)N)C(=O)N[C@H](C(=O)N[C@@H](CCCCNC(=O)COCCOCCNC(=O)COCCOCCNC(=O)COCCOCCNC(=O)CC[C@H](NC(=O)CCCCCCCCCCCCCCC(=O)O)C(=O)O)C(=O)N[C@@H](CCC(N)=O)C(=O)N[C@@H](CCC(N)=O)C(=O)N[C@@H](CC(=O)O)C(=O)N[C@@H](Cc1ccccc1)C(=O)N[C@H](C(=O)N[C@@H](CC(N)=O)C(=O)N[C@@H](Cc1c[nH]c2ccccc12)C(=O)N[C@@H](CC(C)C)C(=O)N[C@@H](CC(C)C)C(=O)N[C@@H](C)C(=O)N[C@@H](CCC(N)=O)C(=O)N[C@@H](CCCNC(=N)N)C(=O)NCC(=O)N[C@@H](CCCNC(=N)N)C(=O)N[C@@H](CCCNC(=N)N)C(=O)N[C@@H](CC(N)=O)C(=O)N[C@@H](CC(=O)O)C(=O)N[C@@H](Cc1c[nH]c2ccccc12)C(=O)O)C(C)C)[C@@H](C)CC) [AT424]	35	100	-7.5
SGTFISDYSIAMDRIK([AEEA-AEEA-AEEA-γGlu-C18 diacid])QQDFVNWLLAQRGRRNDW-OH (N-terminus assumed; SMILES CC[C@H](C)[C@H](NC(=O)[C@H](CO)NC(=O)[C@H](Cc1ccc(O)cc1)NC(=O)[C@H](CC(=O)O)NC(=O)[C@H](CO)NC(=O)[C@@H](NC(=O)[C@H](Cc1ccccc1)NC(=O)[C@@H](NC(=O)CNC(=O)[C@@H](N)CO)[C@@H](C)O)[C@@H](C)CC)C(=O)N[C@@H](C)C(=O)N[C@@H](CCSC)C(=O)N[C@@H](CC(=O)O)C(=O)N[C@@H](CCCNC(=N)N)C(=O)N[C@H](C(=O)N[C@@H](CCCCNC(=O)COCCOCCNC(=O)COCCOCCNC(=O)COCCOCCNC(=O)CC[C@H](NC(=O)CCCCCCCCCCCCCCCCC(=O)O)C(=O)O)C(=O)N[C@@H](CCC(N)=O)C(=O)N[C@@H](CCC(N)=O)C(=O)N[C@@H](CC(=O)O)C(=O)N[C@@H](Cc1ccccc1)C(=O)N[C@H](C(=O)N[C@@H](CC(N)=O)C(=O)N[C@@H](Cc1c[nH]c2ccccc12)C(=O)N[C@@H](CC(C)C)C(=O)N[C@@H](CC(C)C)C(=O)N[C@@H](C)C(=O)N[C@@H](CCC(N)=O)C(=O)N[C@@H](CCCNC(=N)N)C(=O)NCC(=O)N[C@@H](CCCNC(=N)N)C(=O)N[C@@H](CCCNC(=N)N)C(=O)N[C@@H](CC(N)=O)C(=O)N[C@@H](CC(=O)O)C(=O)N[C@@H](Cc1c[nH]c2ccccc12)C(=O)O)C(C)C)[C@@H](C)CC) [AT426]	28	80	-7.6
EGTFISDYSIAMDKIK([AEEA-AEEA-AEEA-γGlu-C16 diacid])QQDFVNWLLAQKGPSSGAPPPS-OH (N-terminus assumed; SMILES CC[C@H](C)[C@H](NC(=O)[C@H](CO)NC(=O)[C@H](Cc1ccc(O)cc1)NC(=O)[C@H](CC(=O)O)NC(=O)[C@H](CO)NC(=O)[C@@H](NC(=O)[C@H](Cc1ccccc1)NC(=O)[C@@H](NC(=O)CNC(=O)[C@@H](N)CCC(=O)O)[C@@H](C)O)[C@@H](C)CC)C(=O)N[C@@H](C)C(=O)N[C@@H](CCSC)C(=O)N[C@@H](CC(=O)O)C(=O)N[C@@H](CCCCN)C(=O)N[C@H](C(=O)N[C@@H](CCCCNC(=O)COCCOCCNC(=O)COCCOCCNC(=O)COCCOCCNC(=O)CC[C@H](NC(=O)CCCCCCCCCCCCCCC(=O)O)C(=O)O)C(=O)N[C@@H](CCC(N)=O)C(=O)N[C@@H](CCC(N)=O)C(=O)N[C@@H](CC(=O)O)C(=O)N[C@@H](Cc1ccccc1)C(=O)N[C@H](C(=O)N[C@@H](CC(N)=O)C(=O)N[C@@H](Cc1c[nH]c2ccccc12)C(=O)N[C@@H](CC(C)C)C(=O)N[C@@H](CC(C)C)C(=O)N[C@@H](C)C(=O)N[C@@H](CCC(N)=O)C(=O)N[C@@H](CCCCN)C(=O)NCC(=O)N1CCC[C@H]1C(=O)N[C@@H](CO)C(=O)N[C@@H](CO)C(=O)NCC(=O)N[C@@H](C)C(=O)N1CCC[C@H]1C(=O)N1CCC[C@H]1C(=O)N1CCC[C@H]1C(=O)N[C@@H](CO)C(=O)O)C(C)C)[C@@H](C)CC) [AT432]	19	92	-7.7
EGTFISDYSIAMDKIK([AEEA-AEEA-AEEA-γGlu-C16 diacid])QQDFVNWLLAQKGKKNDW-OH (N-terminus assumed; SMILES CC[C@H](C)[C@H](NC(=O)[C@H](CO)NC(=O)[C@H](Cc1ccc(O)cc1)NC(=O)[C@H](CC(=O)O)NC(=O)[C@H](CO)NC(=O)[C@@H](NC(=O)[C@H](Cc1ccccc1)NC(=O)[C@@H](NC(=O)CNC(=O)[C@@H](N)CCC(=O)O)[C@@H](C)O)[C@@H](C)CC)C(=O)N[C@@H](C)C(=O)N[C@@H](CCSC)C(=O)N[C@@H](CC(=O)O)C(=O)N[C@@H](CCCCN)C(=O)N[C@H](C(=O)N[C@@H](CCCCNC(=O)COCCOCCNC(=O)COCCOCCNC(=O)COCCOCCNC(=O)CC[C@H](NC(=O)CCCCCCCCCCCCCCC(=O)O)C(=O)O)C(=O)N[C@@H](CCC(N)=O)C(=O)N[C@@H](CCC(N)=O)C(=O)N[C@@H](CC(=O)O)C(=O)N[C@@H](Cc1ccccc1)C(=O)N[C@H](C(=O)N[C@@H](CC(N)=O)C(=O)N[C@@H](Cc1c[nH]c2ccccc12)C(=O)N[C@@H](CC(C)C)C(=O)N[C@@H](CC(C)C)C(=O)N[C@@H](C)C(=O)N[C@@H](CCC(N)=O)C(=O)N[C@@H](CCCCN)C(=O)NCC(=O)N[C@@H](CCCCN)C(=O)N[C@@H](CCCCN)C(=O)N[C@@H](CC(N)=O)C(=O)N[C@@H](CC(=O)O)C(=O)N[C@@H](Cc1c[nH]c2ccccc12)C(=O)O)C(C)C)[C@@H](C)CC) [AT416]	52	90	-7.3
SGTFISDYSIAMDKIK([AEEA-AEEA-AEEA-γGlu-C16 diacid])QQDFVNWLLAQKGPSSGAPPPS-OH (N-terminus assumed; SMILES CC[C@H](C)[C@H](NC(=O)[C@H](CO)NC(=O)[C@H](Cc1ccc(O)cc1)NC(=O)[C@H](CC(=O)O)NC(=O)[C@H](CO)NC(=O)[C@@H](NC(=O)[C@H](Cc1ccccc1)NC(=O)[C@@H](NC(=O)CNC(=O)[C@@H](N)CO)[C@@H](C)O)[C@@H](C)CC)C(=O)N[C@@H](C)C(=O)N[C@@H](CCSC)C(=O)N[C@@H](CC(=O)O)C(=O)N[C@@H](CCCCN)C(=O)N[C@H](C(=O)N[C@@H](CCCCNC(=O)COCCOCCNC(=O)COCCOCCNC(=O)COCCOCCNC(=O)CC[C@H](NC(=O)CCCCCCCCCCCCCCC(=O)O)C(=O)O)C(=O)N[C@@H](CCC(N)=O)C(=O)N[C@@H](CCC(N)=O)C(=O)N[C@@H](CC(=O)O)C(=O)N[C@@H](Cc1ccccc1)C(=O)N[C@H](C(=O)N[C@@H](CC(N)=O)C(=O)N[C@@H](Cc1c[nH]c2ccccc12)C(=O)N[C@@H](CC(C)C)C(=O)N[C@@H](CC(C)C)C(=O)N[C@@H](C)C(=O)N[C@@H](CCC(N)=O)C(=O)N[C@@H](CCCCN)C(=O)NCC(=O)N1CCC[C@H]1C(=O)N[C@@H](CO)C(=O)N[C@@H](CO)C(=O)NCC(=O)N[C@@H](C)C(=O)N1CCC[C@H]1C(=O)N1CCC[C@H]1C(=O)N1CCC[C@H]1C(=O)N[C@@H](CO)C(=O)O)C(C)C)[C@@H](C)CC) [AT436]	18	100	-7.7

Reference: patent publication US20220298218A1 (ANTAG THERAPEUTICS, published 2022)
